Experimental data: US20230303711A1 (BIO THERA SOLUTIONS, published 2023)
Numbering of substitutions follows the chain as printed. Names and notes keep the numbering of the source.

B1: Antibody 17 (antibody, human IgG1, kappa, V domains shown)
VH: QVQLQESGPGLVKPSETLSLTCTVSGGSLDNYYWSWIRQPPGKGLEWIGYIYYSGNTNYNPSLKSRVTISVDTSKNQFSLRLRSVTAADTAVYYCARGGRFLERYWGQGTLVTVSS
VL: DIQMTQSPSSVSASVGDRVTISCRANQAIGTWLAWYQQKPGKAPKLLIYAASTLQSGVPSRFSGSGSGTEFTLTISSLQAEDVAVYYCQQYYTTPLTFGGGTKLEIKR
notes: Full-length IgG1
B2: Antibody 6Y-G4 (antibody, human IgG4 S228P, kappa)
heavy: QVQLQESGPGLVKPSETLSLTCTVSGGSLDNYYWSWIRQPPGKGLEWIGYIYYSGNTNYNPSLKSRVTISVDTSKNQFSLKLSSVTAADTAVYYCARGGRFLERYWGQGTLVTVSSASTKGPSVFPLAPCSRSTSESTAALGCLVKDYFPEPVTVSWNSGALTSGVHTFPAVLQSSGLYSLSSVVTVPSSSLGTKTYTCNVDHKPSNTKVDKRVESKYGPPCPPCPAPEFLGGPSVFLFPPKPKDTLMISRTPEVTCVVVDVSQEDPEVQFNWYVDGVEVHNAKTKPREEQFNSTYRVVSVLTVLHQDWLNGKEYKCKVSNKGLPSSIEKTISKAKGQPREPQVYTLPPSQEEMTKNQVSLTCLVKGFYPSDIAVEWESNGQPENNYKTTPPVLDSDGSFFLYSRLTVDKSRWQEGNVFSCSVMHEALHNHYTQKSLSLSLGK
light: EIVLTQSPSSLSASVGDRVTIPCRASLSIGSFLNWYQQRPGEAPKLLIFAASSLRSGVPSRFSGSGSGTDFTLTISGLQPEDFATYYCQQTYTTPYTFGQGTKVDIKRTVAAPSVFIFPPSDEQLKSGTASVVCLLNNFYPREAKVQWKVDNALQSGNSQESVTEQDSKDSTYSLSSTLTLSKADYEKHKVYACEVTHQGLSSPVTKSFNRGEC
notes: IgG4P (S228P) form of 6Y-G1
B3: Antibody L12 (antibody, human IgG1, kappa)
heavy: not shown
light: B2 light
notes: Full-length IgG1
B4: Antibody 6Y-G1 (antibody, human IgG1, kappa)
heavy: not shown
light: B2 light
notes: also called Antibody L12-6; L12-6
B5: Antibody L12-10 (antibody, human IgG1, kappa)
heavy: not shown
light: B2 light with G77S, D105E
notes: Full-length IgG1
B6: Antibody L12-5 (antibody, human IgG1, kappa)
heavy: not shown
light: B2 light with P22T, R39K, E42K, F49Y, G77S, D105E
notes: Full-length IgG1
B7: Antibody L12-1 (antibody, human IgG1, kappa)
heavy: not shown
light: B2 light with P22T, R39K, E42K, F49Y, G77S, D105E
notes: Full-length IgG1
B8: Antibody L12-3 (antibody, human IgG1, kappa, V domains shown)
VH: B1 VH with R81K, R83S
VL: EIVLTQSPSSLSASVGDRVTITCRASLSIGSFLNWYQQKPGKAPKLLIFAASSLRSGVPSRFSGSGSGTDFTLTISSLQPEDFATYYCQQTYTTPYTFGQGTKVEIKR
notes: Full-length IgG1
B9: Antibody L12-2 (antibody, human IgG1, kappa, V domains shown)
VH: B1 VH with R81K, R83S
VL: B8 VL with T22P, K39R, K42E
notes: Full-length IgG1
B10: Antibody L12-4 (antibody, human IgG1, kappa)
heavy: not shown
light: B2 light with R39K, E42K, G77S, D105E
notes: Full-length IgG1
B11: Antibody L12-9 (antibody, human IgG1, kappa)
heavy: not shown
light: B2 light with E1D, V3Q, L4M, P22T, R39K, E42K, F49Y, G77S, D105E
notes: Full-length IgG1
B12: Antibody L12-7 (antibody, human IgG1, kappa)
heavy: not shown
light: B2 light with P22T, R39K, E42K, G77S, D105E
notes: Full-length IgG1
B13: Antibody L12-11 (antibody, human IgG1, kappa)
heavy: not shown
light: B2 light with E1D, V3Q, L4M, P22T, R39K, E42K, F49Y, G77S, D105E
notes: Full-length IgG1
B14: Antibody 17-ScFv (scFv)
scFv: QVQLQESGPGLVKPSETLSLTCTVSGGSLDNYYWSWIRQPPGKGLEWIGYIYYSGNTNYNPSLKSRVTISVDTSKNQFSLRLRSVTAADTAVYYCARGGRFLERYWGQGTLVTVSSGGGGSGGGGSGGGGSDIQMTQSPSSVSASVGDRVTISCRANQAIGTWLAWYQQKPGKAPKLLIYAASTLQSGVPSRFSGSGSGTEFTLTISSLQAEDVAVYYCQQYYTTPLTFGGGTKLEIK
notes: VH C-terminus linked to VL N-terminus; Purified on a protein A column and detected with anti-human IgG Fc-PE, but no Fc or tag is described for it
B15: Antibody 11 (antibody, human IgG1, kappa, V domains shown)
VH: B1 VH with N31G, Y50R, Y53D, S54G, G55S, N56G, F101I, L102F, E103G, R104G
VL: B1 VL
notes: Full-length IgG1
B16: Antibody 6 (antibody, human IgG1, kappa, V domains shown)
VH: B1 VH with D30N, N31D, Y50R, Y53G, S54N, N56D, F101I, E103A, R104G
VL: B1 VL
notes: Full-length IgG1
B17: Antibody 10 (antibody, human IgG1, kappa, V domains shown)
VH: B1 VH with Y50R, S54N, F101I, E103A, R104G
VL: B1 VL
notes: Full-length IgG1
B18: Antibody 3 (antibody, human IgG1, kappa, V domains shown)
VH: B1 VH with N31G, Y50R, Y53G, S54N, G55S, N56T, F101I, L102F, E103A, R104G
VL: B1 VL
notes: Full-length IgG1
B19: Antibody 3-6 (antibody, human IgG1, kappa, V domains shown)
VH: B1 VH with F101I, L102F, E103A, R104G
VL: B1 VL
notes: Full-length IgG1
B20: Antibody 3-3 (antibody, human IgG1, kappa, V domains shown)
VH: B1 VH with F101I, L102F, E103G, R104G
VL: B1 VL
notes: Full-length IgG1
B21: Antibody 18 (antibody, human IgG1, kappa, V domains shown)
VH: QVQLQESGPGLVKPSETLSLTCTVSGGSLDNYYWSWIRQPPGKGLEWIGYIYYSGNTNYNPSLKSRVTISVDTSKNQFSLRLRSVTAADTAVYYCARGRGIFGYWGQGTLVTVSS
VL: B1 VL
notes: Full-length IgG1
B22: Antibody 25 (antibody, human IgG1, kappa, V domains shown)
VH: B21 VH with R99G, G100R, Y104H
VL: B1 VL
notes: Full-length IgG1
B23: Antibody 24 (antibody, human IgG1, kappa, V domains shown)
VH: B1 VH with Y50R, Y53G, S54D, G55S, N56A, F101I, L102F, E103S, R104G
VL: B1 VL
notes: Full-length IgG1
B24: Antibody 16 (antibody, human IgG1, kappa, V domains shown)
VH: B1 VH with F101I, L102F, E103S, R104G
VL: B1 VL
notes: Full-length IgG1
B25: Antibody L24 (antibody, human IgG1, kappa)
heavy: not shown
light: B2 light with E1D, V3Q, L4M, G77S, D105E
notes: Full-length IgG1
B26: Antibody L26 (antibody, human IgG1, kappa)
heavy: not shown
light: B2 light with G77S, V104L, D105E
notes: Full-length IgG1
B27: Antibody L5 (antibody, human IgG1, kappa)
heavy: not shown
light: B2 light with Q100P, K103R, V104L, D105E
notes: Full-length IgG1
B28: Antibody L1 (antibody, human IgG1, kappa)
heavy: not shown
light: B2 light with S10T, D105E
notes: Full-length IgG1

What follows are binders tested against T1, macaque CD47-Fc (macaque, UniProt A0A2K5X523 19-141) (assay: ELISA on coated macaque CD47-Fc; row printed as Affinity (µg/mL)).
T1 construct: Bought reagent; not shown: Fc part of the bought fusion and any linker to it
T1 sequence (A0A2K5X523 entry or part of it limits assumed): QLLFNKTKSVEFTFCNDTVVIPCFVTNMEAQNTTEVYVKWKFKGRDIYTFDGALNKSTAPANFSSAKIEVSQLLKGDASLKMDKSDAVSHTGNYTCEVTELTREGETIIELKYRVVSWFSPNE

| EC50 | Binder |
| --- | --- |
| 0.064 µg/mL | B1 |
| 0.11 µg/mL | B2 |
| 0.066 µg/mL | B3 |
| 0.083 µg/mL | B4 |

Each binder was assayed against T2, His-tagged human CD47-ECD protein (CD47-His) (human, UniProt Q08722 19-139) (assay: BLI (Fortebio), antibody on protein A sensor, CD47-His in solution).
T2 construct: Expressed in HEK293F cells; also called CD47-His antigen

| Kd | Binder |
| --- | --- |
| 195 pM | B5 |
| 138 pM | B6 |
| 112 pM | B3 |
| 152 pM | B7 |
| 144 pM | B8 |
| 122 pM | B9 |
| 107 pM | B10 |
| 142 pM | B4 |
| 124 pM | B11 |
| 149 pM | B12 |
| 175 pM | B13 |

These binders were tested against T3, CD47 on the cell surface (CHO-CD47 cells, Jurkat cells, Raji cells) (human, UniProt Q08722 19-323) (assay: flow cytometry on Jurkat cells, goat anti-human IgG Fc-PE, PE-A mean fluorescence).
T3 construct: whole, on cells; One molecule is used for CD47 on CHO-CD47, Jurkat and Raji cells; also called CHO surface CD47; Jurkat cell surface CD47

| EC50 (read off the curve) | Binder |
| --- | --- |
| ~1 µg/mL | B14 |

What follows are binders tested against T3, CD47 on the cell surface (CHO-CD47 …) (assay: flow cytometry on CHO-CD47 cells, goat anti-human IgG Fc-PE, PE-A mean fluorescence).

| EC50 (read off the curve) | Binder |
| --- | --- |
| ~1 µg/mL | B14 |

Each binder was assayed against T3, CD47 on the cell surface (CHO-CD47 …) (assay: flow cytometry competition on CHO-CD47 cells; blocked ligand SIRPα-Fc-Bio (6.5 µg/mL), streptavidin-PE; value is parameter C of the printed 4-parameter fit).

| IC50 | Binder |
| --- | --- |
| 15.1 µg/mL | B14 |

What follows are binders tested against T2, His-tagged human CD47-ECD protein … (assay: competitive ELISA on coated CD47-His (2 µg/mL); blocked ligand SIRPα-Fc-Bio (0.1 µg/mL), HRP-streptavidin, OD450; value is parameter C of the printed 4-parameter fit).

| IC50 | Binder |
| --- | --- |
| 0.921 µg/mL | B15 |
| 1.1 µg/mL | B16 |
| 1.06 µg/mL | B17 |
| 0.844 µg/mL | B18 |
| 1.12 µg/mL | B19 |
| 0.939 µg/mL | B20 |

Molecular target: T2, His-tagged human CD47-ECD protein …
Test: as above
Remark: another data set of the same source

| IC50 | Binder |
| --- | --- |
| 1.23 µg/mL | B21 |
| 1.31 µg/mL | B22 |
| 1.41 µg/mL | B23 |
| 0.975 µg/mL | B24 |
| 1.18 µg/mL | B3 |

Molecular target: T2, His-tagged human CD47-ECD protein …
Test: as above
Remark: another data set of the same source

| IC50 | Binder |
| --- | --- |
| 0.795 µg/mL | B1 |
| 1.09 µg/mL | B25 |
| 1.02 µg/mL | B26 |
| 1.02 µg/mL | B27 |
| 0.967 µg/mL | B28 |

Molecular target: T2, His-tagged human CD47-ECD protein …
Test: as above
Remark: another data set of the same source

| IC50 | Binder |
| --- | --- |
| 0.763 µg/mL | B2 |
| 0.913 µg/mL | B4 |

What follows are binders tested against T2, His-tagged human CD47-ECD protein … (assay: competitive ELISA on coated CD47-His (2 µg/mL); blocked ligand SIRPα-Fc-Bio (0.1 µg/mL), HRP-streptavidin, OD450; value is parameter C of the printed 4-parameter fit; inhibition is partial (A 1.373, D 0.661)).

| IC50 | Binder |
| --- | --- |
| 0.936 µg/mL | B14 |
